{
  "source": "patent US20230303695A1",
  "about": "(SHANGHAI XBH BIOTECHNOLOGY, published 2023)",
  "binders": {"B1": {"name": "KIR3DL2 expressed on cells (receptor, human, UniProt P43630 22-455, looked up)", "chain": "LMGGQDKPFLSARPSTVVPRGGHVALQCHYRRGFNNFMLYKEDRSHVPIFHGRIFQESFIMGPVTPAHAGTYRCRGSRPHSLTGWSAPSNPLVIMVTGNHRKPSLLAHPGPLLKSGETVILQCWSDVMFEHFFLHREGISEDPSRLVGQIHDGVSKANFSIGPLMPVLAGTYRCYGSVPHSPYQLSAPSDPLDIVITGLYEKPSLSAQPGPTVQAGENVTLSCSSWSSYDIYHLSREGEAHERRLRAVPKVNRTFQADFPLGPATHGGTYRCFGSFRALPCVWSNSSDPLLVSVTGNPSSSWPSPTEPSSKSGICRHLHVLIGTSVVIFLFILLLFFLLYRWCSNKKNAAVMDQEPAGDRTVNRQDSDEQDPQEVTYAQLDHCVFIQRKISRPSQRPKTPLTDTSVYTELPNAEPRSKVVSCPRAPQSGLEGVF", "notes": "whole, on cells; on CT26 cells (vector with thy1.1 tag)"}},
  "key": {"[1]": {"biological_target": "T1, recombinant human IGSF8 extracellular domain tagged by a human Fc region (IGSF8-hFc) (human, UniProt Q969P0 28-579, biotin label in Examples 17, 18 and 28 (site not given))", "T1 construct": "also called IGSF8-Fc fusion protein; IGSF8-hFc-biotin; not shown: human Fc region", "T1 sequence": "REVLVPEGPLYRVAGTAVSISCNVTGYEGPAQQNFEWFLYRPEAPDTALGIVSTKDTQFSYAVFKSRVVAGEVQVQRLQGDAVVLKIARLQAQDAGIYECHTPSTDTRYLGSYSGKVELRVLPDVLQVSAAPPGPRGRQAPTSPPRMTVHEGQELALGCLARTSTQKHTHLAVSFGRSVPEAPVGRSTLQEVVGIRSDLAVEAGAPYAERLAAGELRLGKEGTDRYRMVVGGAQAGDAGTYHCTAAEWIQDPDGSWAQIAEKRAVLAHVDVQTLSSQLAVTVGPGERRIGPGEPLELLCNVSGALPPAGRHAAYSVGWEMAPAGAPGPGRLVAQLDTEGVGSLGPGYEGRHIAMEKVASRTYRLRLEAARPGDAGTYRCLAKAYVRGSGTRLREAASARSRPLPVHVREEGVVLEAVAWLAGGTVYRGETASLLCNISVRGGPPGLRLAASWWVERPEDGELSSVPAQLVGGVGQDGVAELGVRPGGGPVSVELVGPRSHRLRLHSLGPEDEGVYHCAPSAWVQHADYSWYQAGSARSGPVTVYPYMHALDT", "experiment": "FACS, biotin-labelled IGSF8-hFc on CT26 cells expressing the KIR, MFI normalized to Thy1.1"}, "[2]": {"biological_target": "T2, human IGSF8 expressed on the cell surface (human, UniProt Q969P0 28-613)", "T2 construct": "whole, on cells; also called human IGSF8 on CT26 cells; IGSF8 on MC38 cells", "T2 sequence (looked up)": "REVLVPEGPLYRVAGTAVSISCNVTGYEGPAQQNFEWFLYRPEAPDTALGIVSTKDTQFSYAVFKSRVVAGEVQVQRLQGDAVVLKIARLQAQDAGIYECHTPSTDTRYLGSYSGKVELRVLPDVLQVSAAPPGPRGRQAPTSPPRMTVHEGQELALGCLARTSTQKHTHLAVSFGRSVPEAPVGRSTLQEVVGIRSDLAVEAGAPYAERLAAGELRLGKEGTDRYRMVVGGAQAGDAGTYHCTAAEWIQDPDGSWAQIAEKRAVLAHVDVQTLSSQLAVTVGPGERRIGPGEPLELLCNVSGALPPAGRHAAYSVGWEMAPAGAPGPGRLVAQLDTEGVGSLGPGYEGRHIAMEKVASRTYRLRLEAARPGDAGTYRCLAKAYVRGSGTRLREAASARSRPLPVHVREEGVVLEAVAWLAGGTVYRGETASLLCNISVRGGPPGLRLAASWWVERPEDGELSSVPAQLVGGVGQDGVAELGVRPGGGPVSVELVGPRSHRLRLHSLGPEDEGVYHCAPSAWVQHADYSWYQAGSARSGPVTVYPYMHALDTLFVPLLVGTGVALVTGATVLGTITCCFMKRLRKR", "experiment": "FACS cell-cell conjugate assay, CFSE-labelled MC38-IGSF8 mixed 1:1 with Far Red-labelled CT26-KIR3DL2", "experimental": "FIG. 23A is a diagram of two embodiments of an antibody blocking assay. In the left panel, CT26 cells expressing ligand IGSF8 are treated with soluble and biotin labelled receptor (KIR3DL1/2) and anti-IGSF8 mAbs, and subsequently, bound receptor is detected with PE-streptavidin. In the right panel, MC38 cells expressing the IGSF8 ligand are contacted with KLR- or KIR-receptor-expressing CT26 cells, and anti-IGSF8 antibodies capable of blocking MC38-CT26 cell/cell conjugates will reduce the formation of the FACS-detectable conjugate.\nA competition assay (FIG. 23A) was then designed to test whether these seven mAbs block IGSF8 binding to the KIR3DL1/2 or the KLRC1&D1 heterodimer receptors. MC38 cells (a cell line derived from C57BL6 murine colon adenocarcinoma cells from NIH) with forced expression of IGSF8 protein on cell surface by lentiviral delivery of a human IGSF8-expression construct were labeled with CFSE (Carboxyfluorescein succinimidyl ester, Thermo). CT26 cells with forced expression of either KIR3DL1/2 or KLRC1&D1 were labeled with CellTrace Far Red (Thermo). The MC38 cells were then mixed at a 1:1 ratio with the CT26 cells for about an hour at room temperature. The formation of MC38 and CT26 cell/cell conjugates was assessed by flow cytometry."}, "[3]": {"biological_target": "B1", "experiment": "FACS, hFc-tagged proteins on CT26 cells expressing the receptor, MFI normalized to Thy1.1", "experimental": "KLRC1 also contains a ITIM motif in its intracellular domain, and was known to be a inhibitory receptor of NK or CD8⁺ T cells as part of a heterodimer with KLRD1 on the cell surface. […] Specifically, 100,000 CT26 cells overexpressing the antigens (KIRs or KLRs) were washed with PBS buffer containing 2% FBS, and incubated with 100 μL IGSF8 recombinant proteins or antibodies (5 μg/mL) for 30 minutes on ice. Cells were then washed twice with wash buffer, and incubated with 100 μL of 1:100 anti-human Fc-PE antibody for 15 minutes on ice. Cells were washed twice with wash buffer and analyzed on a FACS analyzer (CytoFlex, Beckman). In these experiments, the mean fluorescence intensity (MFI) of IGSF8 binding to different CT26 cells were normalized by the expression of different KLRs on CT26 cells using an anti-thy1.1 mAb via flow cytometry."}},
  "data": [
    {"binder": "B1", "values": [
      {"measurement": "binding result", "setting": "[1]", "result": "binds"},
      {"measurement": "binding result", "setting": "[2]", "result": "binds"}
    ]},
    {"binder": "IGSF8 protein without D1 domain (ligand, human, UniProt Q969P0 150-579, looked up, domain: D2-4; also called D24; D2-4) PDVLQVSAAPPGPRGRQAPTSPPRMTVHEGQELALGCLARTSTQKHTHLAVSFGRSVPEAPVGRSTLQEVVGIRSDLAVEAGAPYAERLAAGELRLGKEGTDRYRMVVGGAQAGDAGTYHCTAAEWIQDPDGSWAQIAEKRAVLAHVDVQTLSSQLAVTVGPGERRIGPGEPLELLCNVSGALPPAGRHAAYSVGWEMAPAGAPGPGRLVAQLDTEGVGSLGPGYEGRHIAMEKVASRTYRLRLEAARPGDAGTYRCLAKAYVRGSGTRLREAASARSRPLPVHVREEGVVLEAVAWLAGGTVYRGETASLLCNISVRGGPPGLRLAASWWVERPEDGELSSVPAQLVGGVGQDGVAELGVRPGGGPVSVELVGPRSHRLRLHSLGPEDEGVYHCAPSAWVQHADYSWYQAGSARSGPVTVYPYMHALDT", "values": [
      {"measurement": "binding result", "setting": "[3]", "result": "no binding"}
    ]}
  ]
}
